The source of these data is the NTF2 design screens of Basanta et al. (2020).

The nature of this series: protease stability score; higher = more stable; yeast display proteolysis, trypsin and chymotrypsin.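 Also: log10 excess protease needed over predicted unfolded state with 0 meaning unfolded.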
Turning to “DDERRARDLFKEHEDNWKNGNHEELVKQADEDARVDVGDKELHGRDDLRRENRRIVEQADHIRFDLKSLDVQGDKVTFDFVVKVDINGRTETRRVQEKFVVTNGRIRLKEATEG”, the protease stability score was -0.009.
In turn, “DDERRKKQVDTFNKAFEKGDESQIRKLFDKDAKARVGDKHYHGKEQVARMVKTFVHQVDHMQFKSVRVQGDKVRADVTVKVNGNTARFTIEIRIHNGKIQHASIDPRNMEKMKR” came in with a protease stability score of -0.073.
For “DDERVQEQAKDFLKVVKEGNEEDLTKLFDPNASARYGDKTYHGREKVATAVAELAKKVDHFRVEHVEASGNKLHIDAYFQVNGNRRRIRFFIEIRNGKINTVIITSG”, the protease stability score amounted to 1.62.
For the sequence “DDESRVRKMLEDMREQLQTGNPERVADMADPNVEVTVGDKTLRGREDLVKYWRSIAENVDRVDLKLRSLNISGDQISVDFVERNNDNGQTRKHDASARFQKDNGRILATHIHVQ”, the protease stability score amounted to 0.119.
With “DDETAEKLAREFIEALKEGNEEQVRRLVDENVRVEVGDTTFHGREEAAKFAKEFKQHADHVEIRDVSVHGDKVELNLVLNVNGRERDVVVIVRVENGKIKEFQYREN”, the protease stability score was 1.22.
The same measure for “DDETLNELVETLMKAWNQGNPDDLNKLIDKDAKIIIGETHIHGRDEFRKWADTLHRQVDHYQFDSVTAHNGRVRMHMKLRVNGVNVVVHVKVQAHNGRIKRMRMRWRNEEDKKKVEQ”: 1.39.
The same measure for “DDEVAEELRDIVHNGNWEEMSRNADKNAKVTIGDKQVHGRESAVRVLRIWQKQFDHIQIDRIDKHPGRVRWNARANVNGREVDYHARIHVKNGKVTDVTMEFTDPSQKRQFNRDLN”: 0.205; for “DDEVAKTIVKNWKTGDPDRLNEMFDPNARIRIGNQDVHGHEEVKKMLHKFFTAIDSIDIKRVSVHNGRIDIDVRAHFNGRSFRFVLHIVVEDGRVKHMEMKVTDPDSQRELEKHQK”: 1.35.
The same measure for “DDEVFRRFQEALDIVKKGDPKKFEEMADPNARVKVGDKQLHGRETIAKDIADHMKEMKIEWRVKKLTTNEDHVNVTERWQQKHDGRPEDRERRARVRARGDKLKNHEVETDG”: 0.118; for “DDEVKERVTQLLTAMLTNNPDKVQELIDPNAKVHVGDKRVQGEDDIKRVVEEENRQWRMRIKSVSVHVQGEKVRLDIEFVVHVNGEPQNDRVIMELTVHNGRVTDLQLQVDPRKLQERRN”: 0.966; for “DDEVKKEAEKMVEIIMHGDPDKVRNQFDPNAKMQIGDKELHGQEQLRDHLKRMNDHLRIDLKSVSARLDGNHIHLDVLFVKEHNGKPEEQRVEFVADIHNGKIVSASVEHVD”: 0.54.
The sequence “DDEVKKFAEKFVTNLENNNPQELKSMADPNAKFEVGNKSVHGMDEYVRQVRERNEHMRFDVKRVQIRVNGNQIIINVHLHVNVNGRPVDLSYEVDINFDNGKIKYVRLDVDEDQEKRMTG” showed a protease stability score of 1.1.
“DDEVLDDLVRLIKDNDWEQMANNADKDVKIQIGDKTWHGREQVEEVMRRMQETIDHLDIRSVTRHNGQVKVENRIEVNGQTIIYTVVFQAHNGRLKSMRVQATSHHAEDVMRQVIN”: the protease stability score turned out to be 0.792.
The value for “DDEVLDQVKEFLKAVKTGNDQQIKRLADKDVHFKIGDDVIDGREKVTKEWKQQHREMSVDYKKVKLQKRPNRAIVTYDVHYRHNGRPQSLKVQVRFTFDNGKLQSMSVTNSQ” was -0.006; that for “DDEVNHNFEEMLKARESGDPDRLKELFRDDVRMQVGDKQVTGREKLAEHLVENMKHSQRTIRITDIKAHNGRLEVRLKFTEEHNGRPKTAEADVKAVVHNGKFVSMHVDQKR” was -0.523; that for “DDEVQEVAEQWMRAFNTGDPDTFKDLLDKDVRVQYGDKRLSGKKTLANELQHQKEHQRFKVQHVDIKVTGNKAEINFTLVMDVNGKPVHYTVRANLDVHNGKVKEARFTMDPNTLSKMKR” was -0.24.
On to “DDEVRKVVHEWWKALRTGDPDLAKKLADPNAEFQIGDKRVHGMKDFARKLTEEHKESEIEINIRHIDAQGDNVNVHFEFQIDRNGRPQTNTQTVHLRVNNGKITRFEMRTQS”, for which the protease stability score turned out to be 1.16.
As to “DDEVVKEVNNALKTNDFKSMVDLADKNARIRVGNKTYRGREEVERFQTILHQRADHVQFRKIHVEGDTAVVDMVVVVNGHKLKYTVKIRVHNGKITSLRMQFTDESDERVMSKVLG”, the protease stability score is 0.8.
The value for “DDHAADVMRKWFEALSSGNPDQAKKNLDPNAKVQIGDKTLHGREQVSQHVREQKEEIRFEIQSVDVRKEPGQVTVTMVYVSHFNGQPRRDTDTFFADVHGDKIKSVHIRVDEKQKQRERD” was -0.495; that for “DDHAERQARQVQTALKTGDPNQMERMFDENAEVVYGDKRIHGEHEASRVAKRIKEEMRVEYDVRRVTDNEDHVKFHAIIVIDENGKPRTKQLDLTMQQENGKVRLVSFRQDR” was -0.048; that for “DDHAIRLLHEMIKAERTNDPDKLKEQMDPNAKIKYGDKTVHGRNDAVRYLEETVEHARVSIQVKSIKDQGDQAIADATITVNINGRPQQFKITIVAKFHNGRIKEVEIRVSEEQERQMES” was 0.785.
For the sequence “DDHALERLRSLNHIEDDGNEEKVEEMLDPNATVEVGDKRYHGSHHYVDHVRQRKEKQRYSQQFKHFHREPGRIVVHATAKFQVNGKPFKYTLTQVARLSNGKFTDIKVDVPERLKEQRQQ”, the protease stability score was -0.258.
The same measure for “DDHALRLVEEFLRAMRTGDEDKLKELVDPNARVTVGDHVWHGMESAAREWKRLKDEMRIKIDLQHVDDHGNSANAKASLAFRVNGKPQQNHMKMEVIFENGRIQSIVLRFSNEVEHNIKR”: 1.28; for “DDHAMRKFHELLKAIETGDEKKITDLADKHARFEYGDTEVHGRHKYAKEATDRRREMRIEIKDMKTRVDENHVQINNNYQVQVNGEPHTYTVQVVVRMDNGRLKQVQIRVSEEIRDRNKT”: -0.166.
Take “DDHANRVVEDVMQAWQDNDEDRLKELLDPNVKVEYGDRRVEGRDEAVREWVEQFRQSTIEYEIKSVNNSGDKVQINMDMRFESNGHPDENRVRLEASAHNGKIRELNFHTDQ”: the protease stability score turned out to be 0.589.
In turn, “DDHAQRHLKELLKVINTGDEEEVEHMADPNARIQVGDKVFHGMRSYVDDIRRKKEELNVEYNVRRMDADGNRVEANVDVVFNHNGKPDRRTVDMKATIRNGKIKSMHWQENP” registered a protease stability score of -0.227.
The value for “DDHAVRLLNDIVRALNSGDEQKVADNADPNVRIEYGDSVITGRERLMEEIQKRRKELRFEVQVDRVREKPNHVVADVQLHFNVNGQPRNMKVEVRATWTNGKLKHMHIKMDEEQVRQLKR” was 1.1.
For “DDHAVRMAKTYQKAIQHNDPDKMVDLVDPNAKIHIGDKDIQGREELRRWVKHRIDDINIIIERVSATDKGDKAIVTVDLVENENGRPHNVRFEVTFDFKNGRAQRVTVQESR”, the protease stability score was -0.088.
For “DDHAVSFVEEMLRIEKTGNHQQLENKADPNAEAEYGDKTYHGMEDFARELVRQLREWRLDYKSIDVQAHNGRAEVDVDVLVDIDGEPVRFRVTIVFQQHNGRLKNQSMRMSTDQLRKQQR”, the protease stability score came to 0.121.
The same measure for “DDHDAKRAAKHVENGDPEQITNLFDEDARVHIGDFRIHGREDAKKWADHYRDQVDHLEYEDYRISGDTVVIVFQINVNGKRVRLRLEFRVHNGRIKEMTVEFTSEDDEKRVLKIMS”: 0.531; for “DDHDRLRKFFETLLKNYQHNNEEHATKMADKDARFDVGDKTVNGNKQNAKEMAERVRESDHYHAKIQSYRVEGDKAHFQFVASVVHNGRERHFKVQMELKLHNGSLKIVRLRNS”: 0.966; for “DDHDRQKLSEWYKNYESGDPDKLVDMADPNARFQYGDKHVRGREQIHRQWRKELTEQRFTVVKMSASDHNGVIDMKFTNEVEHNGRPDRRKFSFTFRVRNGQAQEFDLQTTK”: 0.014.
The same measure for “DDHEEASELIRDLNEAWKEGDPDRASKNFDPNARIEVGDRTFRGQEQVKRMADELKEKYDEFTVDIKRLSLHNGSITVNARVVYHNNGRRHDRTYVVILHKHNGRIKIKNMHEQ”: 0.331; for “DDHEKANKVVSKLVEANRTGDEKKFVDMADPNVQLNIGDQRVHGREQAEKFARDFHTRFDHLDVKIKDVDVQGEKLELDVKMKVHFDGRTHEINMRLELQRNNGRVKLVRLHIP”: 0.097.
The value for “DDHEQRSLQELVKKNDEEKFAEQADKDVKVDVGDSRIHGREEWRKFVKRLKDRADHIEIHSVKADGEKLEVHREMTVDGRRVVYYVRYEVHNGRIKSISLQARTEDDQRKLQHVLS” was 0.919; that for “DDHETAKQIMETWKQIVEDGDEHQAQRMADPNVHANIGDHTVHGKEEFKKMLRTWRDRVDRIEVTFRHIEVTGNKLIVVVDVRLDVNGKEIHVHMVLNAQKQGDEAKVETVVVE” was 1.24; that for “DDHEVAKQNMRDLLTILNTGDPDKAEEMADKDVKIDVGDKRYHGQTKMREWIEELRKRYDHIHADVKSVEVHNGQVRADIEMVFNHNGREETVKVDVKAELDGDKVKIENLVLR” was 1.3.
In turn, “DDHKAQRAVDIAKNWLTGNEEELQKQASEEVRFDYGDKTVHGMTEARTQAKRFHERMRADAKVHSFDVTGDKAVVNMVFEQEHNGRPTNRRYRVILDLHNGKVKEVQIDDDG” had a protease stability score of -0.069.
The value for “DDHKLAEDIIQEFHEAMERGDPDQIQKLADKDVTINYGDKRIRGRETATRFWREVMDRIDHVEVTIRELRVKGDKIQFVVLINQNHNGQTTNRHVEASVEVHGDKYRNKSFQFQ” was 0.35; that for “DDHKNRERAKEIAKQFQHNNPEDLRKMFDKDARLDLGSQQYHGREDVNRALSHLSKRIDHYEIKDIKVKGDNIDIQAVVTVNGRRYSLKIILRFSNGKAKEVHFHVS” was 0.997.
The same measure for “DDHKVEHVNRLFETNNPDKLAKNVDPNADNQVGDKRYHGRQKIHTFLKNMYTRVDHVDIHRISVNGNRLQIDATYDIDGRRFYADMRFRLHNGRIKEVRVRFTNEEQDKVVKEAVK”: 0.985; for “DDHLRQVMEELKKAEDTGNPDRYVELADEDVEVHVGDTTLKGRTQHREEIKTQKDQSRLSINIQHVDVDGDKVRVQFVFENDHNGKPSTDRQQFVVRAHNGRVKRIENEERR”: -0.114.
“DDHLRREAKKMVKNYVKGDPDKVMEYVDPNATVNVGDKNIRGRESVREWVKTQKDQMRIQLTSMRVDASNGRVKISLDFRLNDNGKPDRVTVDIKLNMRNGRVQHVNIQTHK” came in with a protease stability score of 0.279.
The value for “DDHNARSALTIAFTAIRQGDEQKIRELMDKHVDVHVGDEVVHGRDQVATRLRKLKERVDHIQVKSMSVQGDTLDLNIIFRINGKDLEIKFDIRFRNGRVESMTVRVTDEKKYKDIHQ” was 0.475.
The same measure for “DDHNIQRLKQFLDDWERGDPDKLKDLVDPNVEFRIGEREVHGMDHWATQLTEERRDQRFQLKDMRVQERPGRVEVRLDYEQDHNGKPERQIVKFVAQATNGELKWVNWTRDS”: -0.017; for “DDHNRAENFLKEVMRAMKNNDPQTLKELADPNVTVEVGDKEIHGQEEFHKWAETLNHNVDSLDIQFKEIRLRPGRAEAIVLITEDHNGRKDRKELNMVARVKGDDIHVVSMHQK”: 0.828.
The value for “DDHNVRLAKKFREAYETGDEETVKSMADPNAHYHVGDKRITGRERQVRKMTRERRDMRVQVESIRYSNRNGRVDVKIVEVRNDNGHPKRMRIVLHVNFQNGKAKEFQIEDQE” was 0.226.
